{
  "source": "paper PMC5454378",
  "about": "“Histone deacetylase 10 structure and molecular function as a polyamine deacetylase” (Nature Communications, 2017)",
  "proteins": {"B1": {"name": "acetylpolyamine amidohydrolase (APAH) (Mycoplana ramosa) (protein)", "chain": "MRVIFSEDHKLRNAKTELYGGELVPPFEAPFRAEWILAAVKEAGFDDVVAPARHGLETVLKVHDAGYLNFLETAWDRWKAAGYKGEAIATSFPVRRTSPRIPTDIEGQIGYYCNAAETAISPGTWEAALSSMASAIDGADLIAAGHKAAFSLCRPPGHHAGIDMFGGYCFINNAAVAAQRLLDKGAKKIAILDVDFHHGNGTQDIFYERGDVFFASLHGDPAEAFPHFLGYAEETGKGAGAGTTANYPMGRGTPYSVWGEALTDSLKRIAAFGAEAIVVSLGVDTFEQDPISFFKLTSPDYITMGRTIAASGVPLLVVMEGGYGVPEIGLNVANVLKGVAG"}},
  "assay_in_all_cases": "purified protein, by the assay type",
  "key": {"[1]": {"substrate": "CC(=O)NCCCC[C@H](NC(=O)[C@H](C)NC(=O)CNC(C)=O)C(=O)Nc1ccc2c(C)cc(=O)oc2c1", "set-up": "fluorogenic AMC-conjugated acetyllysine peptide deacetylation, steady-state kinetics", "from_the_text": "To determine steady-state kinetic parameters for the hydrolysis of a variety of acetylpolyamine and acetyllysine substrates, we prepared full-length recombinant HDAC10 from human (H. sapiens, hHDAC10) and zebrafish (D. rerio, zHDAC10). The CDs of these orthologues are highly similar based on 63%/79% sequence identity/similarity; only full-length constructs yielded soluble proteins. We first assayed the lysine deacetylase activity of these constructs against two commercially available aminomethylcoumarin (AMC)-conjugated fluorogenic acetyllysine peptides, GAK(ac)-AMC and RGK(ac)-AMC (molecular structures of all substrates are shown in Supplementary Fig. 2). […] These measurements were consistent with earlier studies reporting that HDAC10 activity was not measurable using fluorogenic peptide substrates. We also tested activity with 11 non-fluorogenic acetyllysine substrates using a […] chromatography–mass spectrometry (LC–MS)-based discontinuous assay[17] to avoid potential steric clashes that might occur with the bulky AMC group. These substrates included K(ac)NL and GAK(ac)NLQ, which mimic the peptide segment containing K73 in the proposed HDAC10 substrate MutS homologue 2 (MSH2)[22]. Again, we observed no or very low catalytic activity (Fig. 2 and Supplementary Table 1). In comparison with its closest relative, the cytosolic isozyme HDAC6 (ref. [17]), HDAC10 was clearly not an efficient lysine deacetylase."}, "[2]": {"substrate": "CC(=O)NCCCC[C@H](NC(C)=O)C(N)=O", "set-up": "discontinuous LC-MS deacetylation assay, dansylated product quantified, steady-state kinetics", "conditions": "50.0 °C", "procedure": "(§1) To study steady-state kinetics with non-fluorogenic peptide substrates and acetylpolyamines, a discontinuous LC–MS was employed based on the protocol of assaying nonfluorogenic acetyllysine peptide substrates for HDAC6 (ref. [17]). Assays were performed in triplicate. Briefly, 5 μl of enzyme (0.050–20 μM) in HEPES buffer (20 mM HEPES (pH 7.5), 100 mM NaCl, 5 mM KCl, 1 mM MgCl2) was added to 35 μl of substrate solution to initiate the reaction. After incubation for 15–60 min at room temperature, the reaction was quenched by addition of 50 μl of 20 mM dansyl chloride dissolved in acetonitrile followed by 10 μl of NaHCO3 (1.6 M, pH 10.0). The deacetylation products were derivatized with dansyl chloride at 50 °C for 2 hrs. The deacetylation products were detected by LC–MS using a Waters SQD equipped with an Acquity UPLC (Waters, Milford, MA, USA) and quantified by using the standard curves generated from the mass signals of the corresponding deacetylated polyamines and peptides. Inhibition of HDAC10 activity was measured by using 0.49 μM zHDAC10 with 192 μM N^8-acetylspermidine. Data were analysed by logistic regression for IC50 determination and the inhibition constant Ki was calculated based on the Cheng-Prusoff equation, Ki=IC50 / (1+[S]/KM)[45]. Assays were performed in triplicate at room temperature."}, "[3]": {"substrate": "CC(=O)NCCCCCN", "set-up": "steady-state kinetics of acetylpolyamine deacetylation, discontinuous LC-MS after dansyl chloride derivatization", "conditions": "50.0 °C", "procedure": "as §1, with “temperature. We next tested the PDAC activity of hHDAC10 and zHDAC10 against several polyamine substrates using the LC–MS assay (Fig. 2, Supplementary Fig. 3 and Supplementary Table 1). […] For hHDAC10 and zHDAC10, kcat/KM=2,900±200 and 4,600±300 M^−1 s^−1, respectively; in comparison, N^1-acetylspermidine was a poor substrate with kcat/KM=24±5 and 7±2 M^−1 s^−1, respectively. Substrate specificity trends observed for zHDAC10 and hHDAC10 matched those of the previously reported mammalian N^8-acetylspermidine deacetylase activity. […] As a negative control, we examined the N^8-acetylspermidine deacetylase activity of human and zebrafish HDAC6 (ref. [17]). HDAC6 preferentially catalyses the deacetylation of the peptide substrate RGK(ac)-AMC with a catalytic efficiency >100-fold greater than that for the deacetylation of N^8-acetylspermidine. Therefore, HDAC6 is clearly an acetyllysine deacetylase and HDAC10 is an N^8-acetylspermidine deacetylase. It is notable that the molecular function of HDAC10 coincides with the cellular function of the cytosolic PDAC indicated in Fig. 1a.” for “temperature.”"}, "[4]": {"substrate": "CC(=O)NCCCNCCCCN", "set-up": "steady-state kinetics of acetylpolyamine deacetylation, discontinuous LC-MS after dansyl chloride derivatization", "conditions": "50.0 °C", "procedure": "as §1, with “temperature. We next tested the PDAC activity of hHDAC10 and zHDAC10 against several polyamine substrates using the LC–MS assay (Fig. 2, Supplementary Fig. 3 and Supplementary Table 1). […] For hHDAC10 and zHDAC10, kcat/KM=2,900±200 and 4,600±300 M^−1 s^−1, respectively; in comparison, N^1-acetylspermidine was a poor substrate with kcat/KM=24±5 and 7±2 M^−1 s^−1, respectively. Substrate specificity trends observed for zHDAC10 and hHDAC10 matched those of the previously reported mammalian N^8-acetylspermidine deacetylase activity. […] As a negative control, we examined the N^8-acetylspermidine deacetylase activity of human and zebrafish HDAC6 (ref. [17]). HDAC6 preferentially catalyses the deacetylation of the peptide substrate RGK(ac)-AMC with a catalytic efficiency >100-fold greater than that for the deacetylation of N^8-acetylspermidine. Therefore, HDAC6 is clearly an acetyllysine deacetylase and HDAC10 is an N^8-acetylspermidine deacetylase. It is notable that the molecular function of HDAC10 coincides with the cellular function of the cytosolic PDAC indicated in Fig. 1a.” for “temperature.”"}, "[5]": {"substrate": "CC(=O)NCCCCNCCCN", "set-up": "steady-state kinetics of acetylpolyamine deacetylation, discontinuous LC-MS after dansyl chloride derivatization", "conditions": "50.0 °C", "procedure": "as §1, with “temperature. We next tested the PDAC activity of hHDAC10 and zHDAC10 against several polyamine substrates using the LC–MS assay (Fig. 2, Supplementary Fig. 3 and Supplementary Table 1). […] For hHDAC10 and zHDAC10, kcat/KM=2,900±200 and 4,600±300 M^−1 s^−1, respectively; in comparison, N^1-acetylspermidine was a poor substrate with kcat/KM=24±5 and 7±2 M^−1 s^−1, respectively. Substrate specificity trends observed for zHDAC10 and hHDAC10 matched those of the previously reported mammalian N^8-acetylspermidine deacetylase activity. […] As a negative control, we examined the N^8-acetylspermidine deacetylase activity of human and zebrafish HDAC6 (ref. [17]). HDAC6 preferentially catalyses the deacetylation of the peptide substrate RGK(ac)-AMC with a catalytic efficiency >100-fold greater than that for the deacetylation of N^8-acetylspermidine. Therefore, HDAC6 is clearly an acetyllysine deacetylase and HDAC10 is an N^8-acetylspermidine deacetylase. It is notable that the molecular function of HDAC10 coincides with the cellular function of the cytosolic PDAC indicated in Fig. 1a.” for “temperature.”"}, "[6]": {"substrate": "CC(=O)NCCCNCCCCNCCCN", "set-up": "steady-state kinetics of acetylpolyamine deacetylation, discontinuous LC-MS after dansyl chloride derivatization", "conditions": "50.0 °C", "procedure": "as §1, with “temperature. We next tested the PDAC activity of hHDAC10 and zHDAC10 against several polyamine substrates using the LC–MS assay (Fig. 2, Supplementary Fig. 3 and Supplementary Table 1). […] For hHDAC10 and zHDAC10, kcat/KM=2,900±200 and 4,600±300 M^−1 s^−1, respectively; in comparison, N^1-acetylspermidine was a poor substrate with kcat/KM=24±5 and 7±2 M^−1 s^−1, respectively. Substrate specificity trends observed for zHDAC10 and hHDAC10 matched those of the previously reported mammalian N^8-acetylspermidine deacetylase activity. […] As a negative control, we examined the N^8-acetylspermidine deacetylase activity of human and zebrafish HDAC6 (ref. [17]). HDAC6 preferentially catalyses the deacetylation of the peptide substrate RGK(ac)-AMC with a catalytic efficiency >100-fold greater than that for the deacetylation of N^8-acetylspermidine. Therefore, HDAC6 is clearly an acetyllysine deacetylase and HDAC10 is an N^8-acetylspermidine deacetylase. It is notable that the molecular function of HDAC10 coincides with the cellular function of the cytosolic PDAC indicated in Fig. 1a.” for “temperature.”"}, "[7]": {"substrate": "CC(=O)NCCCCCCCCN", "set-up": "steady-state kinetics of acetylpolyamine deacetylation, discontinuous LC-MS after dansyl chloride derivatization", "conditions": "50.0 °C", "procedure": "as §1, with “temperature. We next tested the PDAC activity of hHDAC10 and zHDAC10 against several polyamine substrates using the LC–MS assay (Fig. 2, Supplementary Fig. 3 and Supplementary Table 1). […] For hHDAC10 and zHDAC10, kcat/KM=2,900±200 and 4,600±300 M^−1 s^−1, respectively; in comparison, N^1-acetylspermidine was a poor substrate with kcat/KM=24±5 and 7±2 M^−1 s^−1, respectively. Substrate specificity trends observed for zHDAC10 and hHDAC10 matched those of the previously reported mammalian N^8-acetylspermidine deacetylase activity. […] As a negative control, we examined the N^8-acetylspermidine deacetylase activity of human and zebrafish HDAC6 (ref. [17]). HDAC6 preferentially catalyses the deacetylation of the peptide substrate RGK(ac)-AMC with a catalytic efficiency >100-fold greater than that for the deacetylation of N^8-acetylspermidine. Therefore, HDAC6 is clearly an acetyllysine deacetylase and HDAC10 is an N^8-acetylspermidine deacetylase. It is notable that the molecular function of HDAC10 coincides with the cellular function of the cytosolic PDAC indicated in Fig. 1a.” for “temperature.”"}, "[8]": {"substrate": "CC(=O)NCCCN", "set-up": "steady-state kinetics of acetylpolyamine deacetylation, discontinuous LC-MS after dansyl chloride derivatization", "conditions": "50.0 °C", "procedure": "as §1, with “temperature. We next tested the PDAC activity of hHDAC10 and zHDAC10 against several polyamine substrates using the LC–MS assay (Fig. 2, Supplementary Fig. 3 and Supplementary Table 1). […] For hHDAC10 and zHDAC10, kcat/KM=2,900±200 and 4,600±300 M^−1 s^−1, respectively; in comparison, N^1-acetylspermidine was a poor substrate with kcat/KM=24±5 and 7±2 M^−1 s^−1, respectively. Substrate specificity trends observed for zHDAC10 and hHDAC10 matched those of the previously reported mammalian N^8-acetylspermidine deacetylase activity. […] As a negative control, we examined the N^8-acetylspermidine deacetylase activity of human and zebrafish HDAC6 (ref. [17]). HDAC6 preferentially catalyses the deacetylation of the peptide substrate RGK(ac)-AMC with a catalytic efficiency >100-fold greater than that for the deacetylation of N^8-acetylspermidine. Therefore, HDAC6 is clearly an acetyllysine deacetylase and HDAC10 is an N^8-acetylspermidine deacetylase. It is notable that the molecular function of HDAC10 coincides with the cellular function of the cytosolic PDAC indicated in Fig. 1a.” for “temperature.”"}},
  "data": [
    {"protein": "B1", "values": [
      {"measurement": "Km", "setting": "[1]", "value": "120 ± 20", "unit": "µM"},
      {"measurement": "kcat", "setting": "[1]", "value": "0.0067 ± 0.0005", "unit": "s⁻¹"},
      {"measurement": "kcat/Km", "setting": "[1]", "value": "50 ± 5", "unit": "M⁻¹ s⁻¹"},
      {"measurement": "Km", "setting": "[2]", "value": "220 ± 70", "unit": "µM"},
      {"measurement": "kcat", "setting": "[2]", "value": "0.13 ± 0.02", "unit": "s⁻¹"},
      {"measurement": "kcat/Km", "setting": "[2]", "value": "600 ± 100", "unit": "M⁻¹ s⁻¹"},
      {"measurement": "Km", "setting": "[3]", "value": "22 ± 4", "unit": "µM"},
      {"measurement": "kcat", "setting": "[3]", "value": "1.5 ± 0.1", "unit": "s⁻¹"},
      {"measurement": "kcat/Km", "setting": "[3]", "value": "68000 ± 7000", "unit": "M⁻¹ s⁻¹"},
      {"measurement": "Km", "setting": "[4]", "value": "70 ± 20", "unit": "µM"},
      {"measurement": "kcat", "setting": "[4]", "value": "0.6 ± 0.05", "unit": "s⁻¹"},
      {"measurement": "kcat/Km", "setting": "[4]", "value": "7400 ± 600", "unit": "M⁻¹ s⁻¹"},
      {"measurement": "Km", "setting": "[5]", "value": "80 ± 20", "unit": "µM"},
      {"measurement": "kcat", "setting": "[5]", "value": "2.5 ± 0.3", "unit": "s⁻¹"},
      {"measurement": "kcat/Km", "setting": "[5]", "value": "30000 ± 5000", "unit": "M⁻¹ s⁻¹"},
      {"measurement": "Km", "setting": "[6]", "value": "60 ± 10", "unit": "µM"},
      {"measurement": "kcat", "setting": "[6]", "value": "0.2 ± 0.01", "unit": "s⁻¹"},
      {"measurement": "kcat/Km", "setting": "[6]", "value": "2500 ± 900", "unit": "M⁻¹ s⁻¹"},
      {"measurement": "Km", "setting": "[7]", "value": "110 ± 20", "unit": "µM"},
      {"measurement": "kcat", "setting": "[7]", "value": "1.1 ± 0.1", "unit": "s⁻¹"},
      {"measurement": "kcat/Km", "setting": "[7]", "value": "10000 ± 1000", "unit": "M⁻¹ s⁻¹"},
      {"measurement": "Km", "setting": "[8]", "value": "180 ± 60", "unit": "µM"},
      {"measurement": "kcat", "setting": "[8]", "value": "1.3 ± 0.2", "unit": "s⁻¹"},
      {"measurement": "kcat/Km", "setting": "[8]", "value": "7000 ± 1000", "unit": "M⁻¹ s⁻¹"}
    ]}
  ]
}
